As usually defined, the EC50 is the midpoint of the concentration-response curve. Low values mean an effect from little substance, high ones a need for much substance.

The target of this assay is T1, human OX40 (human, UniProt P43489 29-277).
T1 construct: whole, on cells; The construct used for transfection is not described; also called hOX40; OX40 receptor
T1 sequence (looked up): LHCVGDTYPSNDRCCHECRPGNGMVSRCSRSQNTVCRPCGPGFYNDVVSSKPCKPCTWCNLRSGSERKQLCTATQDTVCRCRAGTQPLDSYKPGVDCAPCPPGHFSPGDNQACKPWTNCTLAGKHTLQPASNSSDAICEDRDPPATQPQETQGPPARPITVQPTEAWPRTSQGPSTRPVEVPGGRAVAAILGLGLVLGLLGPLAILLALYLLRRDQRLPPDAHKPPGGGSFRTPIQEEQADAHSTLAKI
The assay is described as follows: flow cytometry on L/OX40 cells, FITC goat anti-human IgG. In general terms: In flow cytometry, cells or beads pass a laser one at a time.

B1: chimeric 119-43-1 IgG1/κ antibody (antibody, V domains shown)
VH: EVKLEESGGGLVQPGGSMKLSCAASGFTFSDAWMDWVRQSPEKGLEWVAEIRSKANNHATYYAESVNGRFTISRDDSKSSVYLQMNSLRAEDTGIYYCTWGEVFYFDYWGQGTTLTVSS
VL: DIQMTQSPSSLSASLGGKVTITCKSSQDINKYIAWYQHKPGKGPRLLIHYTSTLQPGIPSRFSGSGSGRDYSFSISNLEPEDIATYYCLQYDNLLTFGAGTKLELKR
notes: also called Ch119-43-1
Turning to B1, the half-maximal effective concentration (EC50) is 0.96 mg/L.

The record behind these values is patent EP2748199B1 (Board of Regents, The University of Texas System, dated 2019).
